Experimental data taken from the supplement of paper PMC10567573.
± gives the standard deviation.

Test: protein stability index of a GFP-peptide fusion (GPS, HEK-293T) (PSI 1-6); higher = more stable
[1] = treatment: DMSO, c terminus: a fixed tail appended
[2] = treatment: MLN4924 1 uM, 8 h, c terminus: a fixed tail appended
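Further: 24-mer peptide tiles fused after GFP, lentivirally expressed, FACS-sorted into six equal bins by GFP/DsRed ratio, decoded by Illumina sequencing, PSI is the read-weighted mean bin number.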

Sequence: GLAFIAFTEAMTHFPASPFWSVMF [SLC6A17]
- protein stability index [1]: 3.15 ± 0.1
- protein stability index [2]: 3.13 ± 0.51

Sequence: PEGARRGLGVLRALGSRGWEPFDW [FANCE]
- protein stability index [1]: 3.05 ± 0.34
- protein stability index [2]: 2.98 ± 0.42

Sequence: QFLLELLSDKSCQSFISWTGDGWE [ETS2]
- protein stability index [1]: 1.83 ± 0.38
- protein stability index [2]: 1.85 ± 0.29

Sequence: KLFYFKIWAFLDVSFVERILKSQK [FBXO39]
- protein stability index [1]: 2.62 ± 0.74
- protein stability index [2]: 2.47 ± 0.5

Sequence: APWNYHYHCPGSPDHQVPYGHDYP [TRAF3IP2]
- protein stability index [1]: 2.6 ± 0.46
- protein stability index [2]: 3.23 ± 0.3

Sequence: WDRNRRRGGGAAGAGGGGSGAGGG [KLHDC10]
- protein stability index [1]: 5.16 ± 0.5
- protein stability index [2]: 5.3 ± 0.2

Sequence: SRVLLSAIEGIPGSDYVNANYIDG [PTPRD]
- protein stability index [1]: 3.28 ± 0.26
- protein stability index [2]: 3.73 ± 0.24

Sequence: RGGSDPETTGIQIWSEVFTVEKPG [ATL3]
- protein stability index [1]: 4 ± 0.59
- protein stability index [2]: 4.09 ± 0.28

Sequence: NYEKLSRGLRYYYDKNIIHKTAGK [ETS1]
- protein stability index [1]: 2.69 ± 0.15
- protein stability index [2]: 2.89 ± 0.43

Sequence: QRFHEICSNLVKTRRRAVGWWKRL [ARL6IP1]
- protein stability index [1]: 2.22 ± 0.41
- protein stability index [2]: 2.55 ± 0.62

Sequence: DFQPREEAMLYHNQTAELRELLEF [P3H4]
- protein stability index [1]: 3.96 ± 0.28
- protein stability index [2]: 4.01 ± 0.16

Sequence: KQNPGKFCLLSCGILTFLAVLGRY [RETREG3]
- protein stability index [1]: 2.33 ± 0.55
- protein stability index [2]: 2.54 ± 0.37

Sequence: RTHTGEQPYTCSICRRNFSRRSSL [ZNF75A]
- protein stability index [1]: 3.19 ± 0.44
- protein stability index [2]: 3.67 ± 0.47

Sequence: AFLEPDETFIVPDSFLVALDMDDG [SPSB1]
- protein stability index [1]: 3.46 ± 0.25
- protein stability index [2]: 3.65 ± 0.48

Sequence: DVSLPRGAFPPRGPRPVQSVVPEM [CDK4]
- protein stability index [1]: 4.01 ± 0.33
- protein stability index [2]: 3.94 ± 0.33

Sequence: AIFWIVFLLLIVFYTAITKKIFKS [P2RY14]
- protein stability index [1]: 2.42 ± 0.6
- protein stability index [2]: 2.27 ± 0.2

Sequence: LEAGADQEHKTDEMHTALMEACMD [ANKRD17]
- protein stability index [1]: 5.52 ± 0.37
- protein stability index [2]: 5.34 ± 0.28

Sequence: MENLPGLASGPGKYMPHLCQDSSG
- protein stability index [1]: 4.05 ± 0.067
- protein stability index [2]: 3.93 ± 0.12

Sequence: VEEILDRENKRMADSLASKVTRLK [BET1L]
- protein stability index [1]: 4.31 ± 0.4
- protein stability index [2]: 4.52 ± 0.23

Sequence: SQILQNKKHKNSQLDKNSEVYQEV [FAM98B]
- protein stability index [1]: 4.46 ± 0.42
- protein stability index [2]: 4.81 ± 0.067

Sequence: VKKSCWTEEEDRIICEAHKVLGNR [MYBL2]
- protein stability index [1]: 3.33 ± 0.52
- protein stability index [2]: 3.58 ± 0.34

Sequence: GPLVPRLAGMANHGSPQLGEGMFQ [TBX5]
- protein stability index [1]: 3.67 ± 0.26
- protein stability index [2]: 3.75 ± 0.15

Sequence: LGDRLNVEVDAAPAVDLNQVLNET [KRT33B]
- protein stability index [1]: 4.93 ± 0.14
- protein stability index [2]: 4.96 ± 0.097

Sequence: ALSLLELLGFNLTFVFLASLLVLI [CLCN6]
- protein stability index [1]: 3.23 ± 0.93
- protein stability index [2]: 2.69 ± 0.97

Sequence: RERREEDRAPAEQVPRSPVIKISY [PWWP2B]
- protein stability index [1]: 4.34 ± 0.34
- protein stability index [2]: 4.08 ± 0.18

Sequence: NHMYSCRFSRQCVVDKDKRNQCRY [HNF4A]
- protein stability index [1]: 2.61 ± 0.057
- protein stability index [2]: 2.56 ± 0.074

Sequence: DAHFCAVCSDYASGYHYGVWSCEG [ESR2]
- protein stability index [1]: 2.2 ± 0.45
- protein stability index [2]: 2.49 ± 0.42

Sequence: YNKPTDDIVLMAQALEKIFLQKVA [BRD3]
- protein stability index [1]: 2.45 ± 0.54
- protein stability index [2]: 2.06 ± 0.44

Sequence: GQTVTIWAANAGVTASPPTDLIWK [LMNB1]
- protein stability index [1]: 2.37 ± 0.35
- protein stability index [2]: 2.34 ± 0.32

Sequence: ELLTCHSAEYVGHLRATEKMKTRE [HDAC6]
- protein stability index [1]: 3.82 ± 0.1

Sequence: ITIEPGTSYRLQGLKPNSLYYFRL [PTPRD]
- protein stability index [1]: 2.63 ± 0.12
- protein stability index [2]: 2.61 ± 0.43

Sequence: TRKREDAEHNLVLFRKDVDDATLS [PRPH]
- protein stability index [1]: 4.77 ± 0.18
- protein stability index [2]: 4.73 ± 0.097

Sequence: TARRLLSQVRALDRFQVPTTEVNA [NFE2L1]
- protein stability index [1]: 3.02 ± 0.07

Sequence: DIISTVEFNHTGELLATGDKGGRV [PPP2R2B]
- protein stability index [1]: 3.16 ± 0.43
- protein stability index [2]: 3.25 ± 0.5

Sequence: DQNTVVTRQLSEENANLQEYVEKE [MTUS2]
- protein stability index [1]: 5.41 ± 0.25
- protein stability index [2]: 5.51 ± 0.21

Sequence: LHEALLEYEAGRAGPGGGAERRRA [ESRRA]
- protein stability index [1]: 4.27 ± 0.34
- protein stability index [2]: 4.82 ± 0.18

Sequence: TSTPEDKESGQEGVDSMAEEGTSD [SMARCE1]
- protein stability index [1]: 5.65 ± 0.25
- protein stability index [2]: 5.51 ± 0.33

Sequence: LIRYICGVVHPSNEVLSSDILPRW [INTS3]
- protein stability index [1]: 2.66 ± 0.26
- protein stability index [2]: 2.56 ± 0.49

Sequence: SRSTLECAYRTHLVAGIGFYQHLL [SMG5]
- protein stability index [1]: 2.9 ± 0.35
- protein stability index [2]: 2.83 ± 0.57

Sequence: LSTKKSPCAGSTSLSHSPGCSSTQ [LCOR]
- protein stability index [1]: 4.35 ± 0.22
- protein stability index [2]: 4.27 ± 0.12

Sequence: VTLNFNVPGEFKQDVTVVGSAGRL [GFOD1]
- protein stability index [1]: 2.23 ± 0.74
- protein stability index [2]: 2.15 ± 0.37

Sequence: ILDSLLFFYDCSNNPISEHFHPTV [TENT5C]
- protein stability index [1]: 3.15 ± 0.71
- protein stability index [2]: 3.13 ± 0.68

Sequence: RNLDASPTYKGLLMSLQNQLKESK [CEP70]
- protein stability index [1]: 3.19 ± 0.083
- protein stability index [2]: 3.36 ± 0.25

Sequence: PNAQYWSQFHSVRPQGPQLRQQQH [DNAJC4]
- protein stability index [1]: 3.62 ± 0.14
- protein stability index [2]: 3.76 ± 0.29

Sequence: LGMYQKVTSYCRSATLVGFTVGSV [SLC19A2]
- protein stability index [1]: 2.74 ± 0.6
- protein stability index [2]: 2.73 ± 0.41

Sequence: IERMKQIYQQLSRYRGLGLLASVP [CRY1]
- protein stability index [1]: 2.3 ± 0.49
- protein stability index [2]: 2.36 ± 0.35

Sequence: AEKVNQDMCMKVPDDPEHLAARRQ [CRYL1]
- protein stability index [1]: 5.27 ± 0.61
- protein stability index [2]: 5.15 ± 0.26

Sequence: SLPRDRVLGFLIENFKGLAIPYLE [VPS39]
- protein stability index [1]: 3.24 ± 0.26
- protein stability index [2]: 2.92 ± 0.49

Sequence: AAAAAAASAAAATAAFTTAKAAAL [SPAG8]
- protein stability index [1]: 2.33 ± 0.26
- protein stability index [2]: 2.62 ± 0.75

Sequence: HAAQGGPLLCPGCQGQPQGKAVVS [ELOA2]
- protein stability index [1]: 3.9 ± 0.36
- protein stability index [2]: 4.09 ± 0.24

Sequence: LGPSLEDLFDLCDRTFTLKTVLMI [CSNK1G1]
- protein stability index [1]: 2.69 ± 0.82
- protein stability index [2]: 2.56 ± 0.9

Sequence: TVEKDESHAGKVVLRSWYEKNKHI [FAM50A]
- protein stability index [1]: 3.74 ± 0.33
- protein stability index [2]: 3.87 ± 0.18

Sequence: YINFRHLYKQRRRRYGQKKKKIH [HACD3]
- protein stability index (treatment: DMSO, c terminus: native): 2.12 ± 0.29
- protein stability index (treatment: MLN4924 1 uM, 8 h, c terminus: native): 2.74 ± 0.55

Sequence: YWDGSGHRRTVKMRKGNTMQQFLQ [FAM50A]
- protein stability index [1]: 2.74 ± 0.12
- protein stability index [2]: 2.72 ± 0.24

Sequence: FEFRPELVNDDDEEADDTRYTQGT [ZC3H15]
- protein stability index [1]: 5.44 ± 0.25
- protein stability index [2]: 5.28 ± 0.2

Sequence: RRVGGSRILLRMTLGREVMSPLQA [NLN]
- protein stability index [1]: 2.15 ± 0.32
- protein stability index [2]: 2.34 ± 0.35

Sequence: ALEQGGLRAATMSAVEAATCRAKE [PYCR3]
- protein stability index [1]: 4.68 ± 0.3
- protein stability index [2]: 4.96 ± 0.14

Sequence: KVRQLERDNAELEKLIQERSQQQE [KRT34]
- protein stability index [1]: 5.17 ± 0.22
- protein stability index [2]: 5.28 ± 0.24

Sequence: SYVRSRKRLREEEAARLFKQIVSA [TRIB1]
- protein stability index [1]: 2.53 ± 0.38
- protein stability index [2]: 3.09 ± 0.27

Sequence: QWRIRNLPYPKDVYSVSVDQKERC [DPCD]
- protein stability index [1]: 3.32 ± 0.42
- protein stability index [2]: 3.17 ± 0.21

Sequence: KSSVYRRYNDFVVFQEMLLHKFPY [SNX8]
- protein stability index [1]: 2.45 ± 0.65
- protein stability index [2]: 2.24 ± 0.39

Sequence: QKALYRRLATVHMSRMINKYKRRR [CLPTM1]
- protein stability index [1]: 3.7 ± 0.22
- protein stability index [2]: 3.53 ± 0.16

Sequence: YTFGSNQHGQLGTNTRRGSRAPCK [NEK8]
- protein stability index [1]: 4.27 ± 0.52
- protein stability index [2]: 4.22 ± 0.39

Sequence: NKKAKRYLLHGLECVVAMHQAQLI [EIF5]
- protein stability index [1]: 3.02 ± 0.47
- protein stability index [2]: 2.5 ± 0.4

Sequence: FANGHTYHINSISVNSDCETYMSA [PPP2R2C]
- protein stability index [1]: 2.68 ± 0.69
- protein stability index [2]: 2.63 ± 0.23

Sequence: LISKLPYIHFFHTVLKQIAPEYFE [DENND6A]
- protein stability index [1]: 2.64 ± 0.28
- protein stability index [2]: 2.37 ± 0.63
